Assay results published in the RNAGym collection of RNA variant scans (doi:10.7554/elife.80360).

B1: Twister Ribozyme (parent)
chain: AACACUGCCAAUGCCGGUCCCAAGCCCGGAUAAAAGUGGAGGGGGCGG

Variants of: B1
Test: self-cleavage, relative activity (ratio to wild type); higher = more cleavage; co-transcriptional
For G29U A30G, the self-cleavage was 1. With G29C G42A the self-cleavage was 0.11. In the case of G29C G42U, the self-cleavage is reported as 0.129. With G29C G42C the self-cleavage was 0.174. For G29U A34C, the self-cleavage was 0.185. G29U A34U showed a self-cleavage of 0.666. For U31A A40U, the self-cleavage was 0.136. Work on U31A A40G yielded a self-cleavage of 0.0937. For A30U C46A, the self-cleavage was 0.872. For A30U C46G, the self-cleavage was 0.931. A30G A34U showed a self-cleavage of 0.86. Variant A30G A34G has a self-cleavage of 0.761. For A30G A34C, the self-cleavage was 0.497. With A30U G45U the self-cleavage was 0.798. Work on A30U G45A yielded a self-cleavage of 0.817. Variant A30U G45C has a self-cleavage of 0.661. In the case of A30G G38A, the self-cleavage is reported as 0.853. A30G G38C showed a self-cleavage of 0.868. With G29C A34C the self-cleavage was 0.148. Work on G29C A34G yielded a self-cleavage of 0.214. Variant A30G G36U has a self-cleavage of 0.32. A30C G38C gave a self-cleavage of 0.732. Work on U31A yielded a self-cleavage of 0.751. For G29C G47A, the self-cleavage was 0.397. Work on G29C G47U yielded a self-cleavage of 0.3. Variant G29C G47C has a self-cleavage of 0.222. For G29U A33G, the self-cleavage was 0.747. Variant A30U G39U has a self-cleavage of 0.212. Work on A30U G39A yielded a self-cleavage of 0.614. A30U G39C gave a self-cleavage of 0.185. A30C U37G showed a self-cleavage of 0.306. Work on G29U G48U yielded a self-cleavage of 0.867. G29U G48A showed a self-cleavage of 0.905. Work on U31A G41U yielded a self-cleavage of 0.55. With U31A G44C the self-cleavage was 0.711. For G29U G38U, the self-cleavage was 0.666. Work on A30C G45U yielded a self-cleavage of 0.573. With G29C A30C the self-cleavage was 0.971. A30G A35G showed a self-cleavage of 0.869. A30U G48U showed a self-cleavage of 1.09. A30U G48A gave a self-cleavage of 1. With A30U G43A the self-cleavage was 0.278. U31A A34G showed a self-cleavage of 0.853. In the case of U31A A34U, the self-cleavage is reported as 1.07. Variant A30C G36U has a self-cleavage of 0.0939. A30C G36C showed a self-cleavage of 0.0822. With A30U A32C the self-cleavage was 0.945. A30U A32U gave a self-cleavage of 0.879. G29C A40G gave a self-cleavage of 0.157. Variant A30C G44U has a self-cleavage of 0.793. Work on A30C G44C yielded a self-cleavage of 0.874. G29C G44U gave a self-cleavage of 0.777. For A30U G36U, the self-cleavage was 0.294. Work on A30U G36A yielded a self-cleavage of 0.762. A30G C46U showed a self-cleavage of 0.779. Variant A30G C46G has a self-cleavage of 0.964. In the case of A30C U31A, the self-cleavage is reported as 0.687. With A30C U31C the self-cleavage was 0.841. G29U G44U gave a self-cleavage of 0.837. Variant A30G G45C has a self-cleavage of 0.571. In the case of A30G A33C, the self-cleavage is reported as 1.06. Work on A30G A33U yielded a self-cleavage of 0.919. In the case of A30C G43C, the self-cleavage is reported as 0.103. For A30C G43U, the self-cleavage was 0.121. In the case of A30C A33U, the self-cleavage is reported as 0.766. Work on A30C A33C yielded a self-cleavage of 0.676. Work on A30U A33C yielded a self-cleavage of 0.847. G29U G41C gave a self-cleavage of 0.25. Variant G29U A35G has a self-cleavage of 0.786. G29U A35C showed a self-cleavage of 0.892. In the case of A30G G44C, the self-cleavage is reported as 1.02. Variant A30G G44U has a self-cleavage of 0.887. In the case of U31A G39U, the self-cleavage is reported as 0.168. Variant A30G A32C has a self-cleavage of 0.877. U31A A32C gave a self-cleavage of 1.09. Variant U31A A32U has a self-cleavage of 1.05. With A30C A35U the self-cleavage was 0.912. With G29C G38U the self-cleavage was 0.627. For U31A G42C, the self-cleavage was 0.503. In the case of U31A G42A, the self-cleavage is reported as 0.349. U31A G45A gave a self-cleavage of 0.727. U31A G45U showed a self-cleavage of 0.619. Work on G29U A40U yielded a self-cleavage of 0.145. In the case of G29U A40G, the self-cleavage is reported as 0.167. G29U A40C gave a self-cleavage of 0.208. With A30U U37G the self-cleavage was 0.912. G29U showed a self-cleavage of 0.937. In the case of A30U G42A, the self-cleavage is reported as 0.464. In the case of G29U G36C, the self-cleavage is reported as 0.319. For G29U G36U, the self-cleavage was 0.212. In the case of G29C G39A, the self-cleavage is reported as 0.143. Work on G29C G39U yielded a self-cleavage of 0.12. Variant U31A A35C has a self-cleavage of 0.889. Work on U31A A35G yielded a self-cleavage of 0.803. U31A A35U gave a self-cleavage of 1.09. For G29U G42A, the self-cleavage was 0.224. With A30C G42C the self-cleavage was 0.111. Variant G29C U31G has a self-cleavage of 0.851. G29C U31A showed a self-cleavage of 1. A30C C46A showed a self-cleavage of 0.612. Work on A30C C46U yielded a self-cleavage of 0.798. Variant A30C C46G has a self-cleavage of 0.647. A30G G41C showed a self-cleavage of 0.37. A30C G39U showed a self-cleavage of 0.106. Work on A30C G39C yielded a self-cleavage of 0.107. G29C G45U gave a self-cleavage of 0.362. For G29C G45A, the self-cleavage was 0.667. In the case of A30G U31A, the self-cleavage is reported as 0.744. In the case of A30G U31G, the self-cleavage is reported as 1.02. A30C A32U showed a self-cleavage of 0.9. A30C A32C showed a self-cleavage of 0.758. For G29U C46U, the self-cleavage was 0.901. Work on G29U C46G yielded a self-cleavage of 0.88. Work on A30C A34C yielded a self-cleavage of 0.0893. Variant A30C A34U has a self-cleavage of 0.314. G29C G48U showed a self-cleavage of 0.642. G29C G43U gave a self-cleavage of 0.156. With A30U A34G the self-cleavage was 0.937. In the case of A30U A34U, the self-cleavage is reported as 0.85. Variant A30G G43U has a self-cleavage of 0.498. For A30U G44A, the self-cleavage was 0.971. For A30U G44C, the self-cleavage was 0.963. In the case of A30G U37C, the self-cleavage is reported as 0.486. With A30G U37A the self-cleavage was 0.901. U31A A33G showed a self-cleavage of 0.82. Variant U31A A33U has a self-cleavage of 0.935. U31A C46G showed a self-cleavage of 0.763. Variant U31A C46U has a self-cleavage of 0.582. With A30U G47U the self-cleavage was 0.954. A30U G47A showed a self-cleavage of 0.927. With G29C U37G the self-cleavage was 0.4. G29C U37C gave a self-cleavage of 0.182. Variant G29C U37A has a self-cleavage of 0.259. Work on A30U G38A yielded a self-cleavage of 0.987. A30C G41U gave a self-cleavage of 0.156. In the case of A30C G41C, the self-cleavage is reported as 0.124. Work on A30C G41A yielded a self-cleavage of 0.133. With G29U G43C the self-cleavage was 0.19. In the case of G29U G43A, the self-cleavage is reported as 0.23. In the case of A30U G41C, the self-cleavage is reported as 0.286. For A30U G41U, the self-cleavage was 0.712. With A30G A40G the self-cleavage was 0.187. For G29U U31C, the self-cleavage was 0.972. Work on G29U U31G yielded a self-cleavage of 0.92. In the case of A30G G47U, the self-cleavage is reported as 0.877. Work on A30G G47A yielded a self-cleavage of 0.817. For A30U U31G, the self-cleavage was 0.993. In the case of A30U U31C, the self-cleavage is reported as 1.02. G29C G36U gave a self-cleavage of 0.106. In the case of A30G G48C, the self-cleavage is reported as 1.13. Work on A30G G48U yielded a self-cleavage of 0.96. In the case of A30C G47A, the self-cleavage is reported as 0.577. Work on A30C G47U yielded a self-cleavage of 0.48. Variant U31A G38U has a self-cleavage of 0.692. In the case of U31A G38A, the self-cleavage is reported as 0.509. U31A G38C showed a self-cleavage of 0.801. With G29C A33C the self-cleavage was 0.545. Variant G29U U37C has a self-cleavage of 0.444. Work on G29U U37A yielded a self-cleavage of 0.512. In the case of G29U A32C, the self-cleavage is reported as 0.836. With A30C G48A the self-cleavage was 0.576. G29C A32U showed a self-cleavage of 0.443. Work on A30G G42U yielded a self-cleavage of 0.377. G29U G39U gave a self-cleavage of 0.223. G29U G39C gave a self-cleavage of 0.116. G29U G39A gave a self-cleavage of 0.417. Work on G29C G41C yielded a self-cleavage of 0.0927.
